Data published in patent US20110039770A1 (PHARMAGAP, published 2011).

Legend:
[1] = molecular target: T1, PKC-α (purified isoform) (Homo sapiens (Human), UniProt P17252 2-672); experiment: competitive ELISA, coated purified PKC-α, vs anti-PKC α (SC-208); PRE 50 µM
T1 construct: also called purified PKC-alpha; commercially purified PKC-alpha
Method: (§1) Greiner 96 well ELISA plates were coated with the appropriate PKC isoform diluted in PBSN (PBS with Calcium/Magnesium+0.05% Sodium azide w/w). 50 μL/well at 250 ng/mL was used. Control wells contained PBSN only. Plates were incubated overnight at 4° C.
(§2) The plates were washed 3 times with 200 μL of dH₂O per well, then 100 μL of blocking solution was added per well and the plate incubated for 1 h at 37° C. The washing steps with dH₂O were repeated and 50 μL of the appropriate PRE solution (PRE stock solution [20 mM in DMSO] diluted in PBSN) was added and the plate incubated for 1 h at room temperature.
(§3) 50 μL of 1:1000 dilution of Alkaline Phosphatase (AP) conjugated antibody (anti-rabbit for all except zeta, which was anti-goat) was then added and the plate incubated for 1 h at room temperature. Washing with dH₂O was then repeated. Finally, 100 μL of pNPP solution in pNPP buffer (2 mM MgCl₂, 100 mM Sodium bicarbonate in water, pH 9.8) was added to all wells and incubated for 8 minutes for α, βI, βII ε, and ζ, or for 15-20 mins for δ (until sufficient coloration is observed). The reaction was stopped by addition of Stop solution (2N NaOH) and the absorbance at 405 nm was read on a Galaxy Plate reader.

[2] = molecular target: T1, PKC-α (purified isoform); experiment: competitive ELISA, coated purified PKC-α, vs anti-PKC α (SC-208); PRE 100 µM
Method: as §1, §2, §3

[3] = molecular target: T1, PKC-α (purified isoform); experiment: competitive ELISA, coated purified PKC-α, vs anti-PKC α (SC-208); PRE 200 µM
Method: as §1, §2, §3

[4] = molecular target: T2, PKC-δ (purified isoform); experiment: competitive ELISA, coated purified PKC-δ, vs anti-PKC δ (SC-213); PRE 100 µM
T2 construct: also called PKC-delta
Method: as §1, §2, §3

[5] = molecular target: T3, PKC-βI (purified isoform) (Homo sapiens (Human), UniProt P05771 2-671); experiment: competitive ELISA, coated purified PKC-βI, vs anti-PKC βI (SC-209); PRE 100 µM
T3 construct: also called PKC-beta I; PKC beta 1
Method: as §1, §2, §3

[6] = molecular target: T4, PKC-βII (purified isoform) (Homo sapiens (Human), UniProt P05771 2-621); experiment: competitive ELISA, coated purified PKC-βII, vs anti-PKC βII (SC-210); PRE 100 µM
T4 construct: also called PKC-beta II; PKC beta 2
Method: as §1, §2, §3

[7] = molecular target: T4, PKC-βII (purified isoform); experiment: competitive ELISA, coated purified PKC-βII, vs anti-PKC βII (SC-210); PRE 200 µM
Method: as §1, §2, §3

[8] = molecular target: T5, PKC-ε (endogenous, IMR-32 lysate) (human, UniProt Q02156 1-737); experiment: WB competition Protocol B, IMR-32 extract, vs anti-PKC-ε Ab; PKC-ε Band 1; 20 µg peptide
T5 construct: Band 1 and Band 2 (alternate splicing variants, not identified further) are kept under one molecule; the band is named in the assay field of each row; also called PKC-epsilon; PKC-ε Band 1
T5 sequence (looked up): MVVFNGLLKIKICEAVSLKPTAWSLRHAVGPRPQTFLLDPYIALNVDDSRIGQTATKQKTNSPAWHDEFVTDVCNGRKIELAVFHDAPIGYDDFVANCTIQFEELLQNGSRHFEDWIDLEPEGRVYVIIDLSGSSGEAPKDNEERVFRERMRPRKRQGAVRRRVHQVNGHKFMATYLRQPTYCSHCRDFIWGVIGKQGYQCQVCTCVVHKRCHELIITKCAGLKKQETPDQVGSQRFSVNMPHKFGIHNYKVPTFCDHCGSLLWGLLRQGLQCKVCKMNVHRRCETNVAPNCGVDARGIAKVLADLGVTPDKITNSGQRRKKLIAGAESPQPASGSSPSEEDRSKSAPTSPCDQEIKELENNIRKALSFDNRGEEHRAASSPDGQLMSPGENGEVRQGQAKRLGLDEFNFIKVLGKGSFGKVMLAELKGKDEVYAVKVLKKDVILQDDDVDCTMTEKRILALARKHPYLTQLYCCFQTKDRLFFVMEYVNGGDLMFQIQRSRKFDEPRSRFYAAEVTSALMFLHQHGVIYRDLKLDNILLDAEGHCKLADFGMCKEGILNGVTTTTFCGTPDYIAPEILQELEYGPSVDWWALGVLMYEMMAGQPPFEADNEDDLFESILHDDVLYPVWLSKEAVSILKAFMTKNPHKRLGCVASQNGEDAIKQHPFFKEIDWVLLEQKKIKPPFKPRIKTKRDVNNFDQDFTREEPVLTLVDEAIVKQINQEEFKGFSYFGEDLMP
Method: The ability of the peptides PRE 2 and PRE 3 (see Table 4) to interfere with the binding of a PKC-α-specific polyclonal antibody (Santa Cruz Biotechnology, Inc.) to PKC-α was determined using a modified version of the protocol outlined above in which the test peptide was added directly to the cell extract prior to electrophoresis at a concentration of either 5× or 15× the concentration of the protein applied to each well of the gel for the Western blots (20 μg).
Peptides PRE 2, PRE 3 and PRE 4 (see Table 4) were tested for their ability to interfere with the binding of isoform-specific polyclonal antibodies (Santa Cruz Biotechnology, Inc.) to […] using the general protocol described in Example 3. Two bands, representing alternate splicing variants of PKC-ε, were identified on the Western blot using this anti-PKC-ε antibody.

T4 sequence (P05771 other isoform, or with tags, fused parts or gaps limits assumed): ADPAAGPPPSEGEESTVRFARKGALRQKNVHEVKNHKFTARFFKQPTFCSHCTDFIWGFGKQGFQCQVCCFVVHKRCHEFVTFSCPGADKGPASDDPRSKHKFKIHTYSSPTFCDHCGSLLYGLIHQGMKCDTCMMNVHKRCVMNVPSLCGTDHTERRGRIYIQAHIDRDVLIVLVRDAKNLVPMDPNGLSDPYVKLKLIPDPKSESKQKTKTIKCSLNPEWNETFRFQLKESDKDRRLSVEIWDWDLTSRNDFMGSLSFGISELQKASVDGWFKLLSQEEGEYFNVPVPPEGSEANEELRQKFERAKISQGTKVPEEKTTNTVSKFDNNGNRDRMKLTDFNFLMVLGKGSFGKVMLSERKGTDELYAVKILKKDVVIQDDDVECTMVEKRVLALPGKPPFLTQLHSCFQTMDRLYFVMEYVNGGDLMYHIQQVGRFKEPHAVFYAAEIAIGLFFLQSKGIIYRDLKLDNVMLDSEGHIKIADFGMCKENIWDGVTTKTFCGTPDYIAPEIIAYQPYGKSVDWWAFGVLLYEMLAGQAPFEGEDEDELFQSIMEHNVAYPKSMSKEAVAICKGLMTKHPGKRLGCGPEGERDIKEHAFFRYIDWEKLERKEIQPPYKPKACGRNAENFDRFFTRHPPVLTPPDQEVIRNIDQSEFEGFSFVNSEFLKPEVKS
T3 sequence (P05771 2-671 limits assumed): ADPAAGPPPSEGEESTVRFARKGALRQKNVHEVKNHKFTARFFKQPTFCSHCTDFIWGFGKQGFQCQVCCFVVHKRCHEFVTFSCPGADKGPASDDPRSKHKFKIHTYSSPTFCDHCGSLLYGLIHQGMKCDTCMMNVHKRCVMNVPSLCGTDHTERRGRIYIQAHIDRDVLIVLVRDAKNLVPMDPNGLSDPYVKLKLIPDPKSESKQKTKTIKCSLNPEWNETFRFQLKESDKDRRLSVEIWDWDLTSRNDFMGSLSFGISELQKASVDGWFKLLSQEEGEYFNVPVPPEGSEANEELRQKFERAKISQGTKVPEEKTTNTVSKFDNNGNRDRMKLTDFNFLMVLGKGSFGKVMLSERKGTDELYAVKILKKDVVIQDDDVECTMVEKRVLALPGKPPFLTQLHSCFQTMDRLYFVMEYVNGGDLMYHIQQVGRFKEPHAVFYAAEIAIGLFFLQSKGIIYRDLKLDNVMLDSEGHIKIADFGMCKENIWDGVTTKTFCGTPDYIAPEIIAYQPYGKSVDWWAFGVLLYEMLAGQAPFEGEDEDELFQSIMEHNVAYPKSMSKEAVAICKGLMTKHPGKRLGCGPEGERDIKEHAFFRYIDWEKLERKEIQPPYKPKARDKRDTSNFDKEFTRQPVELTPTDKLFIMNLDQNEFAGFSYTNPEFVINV
T2 sequence (Q05655 whole entry, stated change not applied, canonical isoform): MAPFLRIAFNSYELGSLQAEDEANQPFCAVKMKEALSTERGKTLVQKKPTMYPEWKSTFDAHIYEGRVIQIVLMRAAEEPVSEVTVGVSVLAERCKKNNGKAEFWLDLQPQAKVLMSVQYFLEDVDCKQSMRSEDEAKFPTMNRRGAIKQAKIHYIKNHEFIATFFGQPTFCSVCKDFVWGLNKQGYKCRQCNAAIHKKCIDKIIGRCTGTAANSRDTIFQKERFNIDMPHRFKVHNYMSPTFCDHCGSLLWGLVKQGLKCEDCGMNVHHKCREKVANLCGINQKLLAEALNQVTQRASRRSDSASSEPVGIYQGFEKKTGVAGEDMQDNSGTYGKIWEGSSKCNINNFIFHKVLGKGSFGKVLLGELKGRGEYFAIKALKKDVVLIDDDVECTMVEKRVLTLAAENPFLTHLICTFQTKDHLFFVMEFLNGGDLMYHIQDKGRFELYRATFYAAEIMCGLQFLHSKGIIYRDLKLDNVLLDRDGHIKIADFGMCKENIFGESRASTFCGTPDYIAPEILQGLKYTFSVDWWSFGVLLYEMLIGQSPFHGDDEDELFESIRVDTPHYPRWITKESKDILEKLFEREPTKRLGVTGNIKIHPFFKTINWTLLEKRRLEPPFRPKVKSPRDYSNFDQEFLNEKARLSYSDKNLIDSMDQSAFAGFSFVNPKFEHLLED

relative binding capacity (100-%n, DMSO subtracted) [1]: 6.46% | relative binding capacity (100-%n, DMSO subtracted) [2]: 21.9% | relative binding capacity (100-%n, DMSO subtracted) [3]: 22.8% | relative binding capacity (100-%n, DMSO subtracted) [4]: 30.7% | relative binding capacity (100-%n, DMSO subtracted) [5]: 15.7% | relative binding capacity (100-%n, DMSO subtracted) [6]: 13.5% | relative binding capacity (100-%n, DMSO subtracted) [7]: 1.18% | Band Intensity [8]: 184 | Inhibition (%) [8]: 42.9% | Relative Intensity (%) [8]: 57.1%
Binder: Ac-KDAQNLIGISI-NH2 (also called peptide PRE 4) [PRE 4]
